Results reported in publication PMC8319318 (2021).

Biological target: actin filament (skeletal muscle actin) (Oryctolagus cuniculus, UniProt P68135)
Experiment: TIRF microscopy (steady-state fluorescence density)

B1: anillin (protein)
chain: MDPFTEKLLERTRARRENLQRKMAERPTAAPRSMTHAKRARQPLSEASNQQPLSGGEEKSCTKPSPSKKRCSDNTEVEVSNLENKQPVESTSAKSCSPSPVSPQVQPQAADTISDSVAVPASLLGMRRGLNSRLEATAASSVKTRMQKLAEQRRRWDNDDMTDDIPESSLFSPMPSEEKAASPPRPLLSNASATPVGRRGRLANLAATICSWEDDVNHSFAKQNSVQEQPGTACLSKFSSASGASARINSSSVKQEATFCSQRDGDASLNKALSSSADDASLVNASISSSVKATSPVKSTTSITDAKSCEGQNPELLPKTPISPLKTGVSKPIVKSTLSQTVPSKGELSREICLQSQSKDKSTTPGGTGIKPFLERFGERCQEHSKESPARSTPHRTPIITPNTKAIQERLFKQDTSSSTTHLAQQLKQERQKELACLRGRFDKGNIWSAEKGGNSKSKQLETKQETHCQSTPLKKHQGVSKTQSLPVTEKVTENQIPAKNSSTEPKGFTECEMTKSSPLKITLFLEEDKSLKVTSDPKVEQKIEVIREIEMSVDDDDINSSKVINDLFSDVLEEGELDMEKSQEEMDQALAESSEEQEDALNISSMSLLAPLAQTVGVVSPESLVSTPRLELKDTSRSDESPKPGKFQRTRVPRAESGDSLGSEDRDLLYSIDAYRSQRFKETERPSIKQVIVRKEDVTSKLDEKNNAFPCQVNIKQKMQELNNEINMQQTVIYQASQALNCCVDEEHGKGSLEEAEAERLLLIATGKRTLLIDELNKLKNEGPQRKNKASPQSEFMPSKGSVTLSEIRLPLKADFVCSTVQKPDAANYYYLIILKAGAENMVATPLASTSNSLNGDALTFTTTFTLQDVSNDFEINIEVYSLVQKKDPSGLDKKKKTSKSKAITPKRLLTSITTKSNIHSSVMASPGGLSAVRTSNFALVGSYTLSLSSVGNTKFVLDKVPFLSSLEGHIYLKIKCQVNSSVEERGFLTIFEDVSGFGAWHRRWCVLSGNCISYWTYPDDEKRKNPIGRINLANCTSRQIEPANREFCARRNTFELITVRPQREDDRETLVSQCRDTLCVTKNWLSADTKEERDLWMQKLNQVLVDIRLWQPDACYKPIGKP
modifications: anillin C-terminal GFP tag; F-actin stabilised with biotin-phalloidin
  Kd: 7.82 nM
